Several values for one entry are separate records, joined by “and”; a condition that tells them apart may be missing. Equal values may be shown once.
Legend:
[1] = biological target: the molecule itself; assay: crystal structure; hexagonal crystal form, data to 7 Å; molecular replacement with the hIKK2EE(11–669) model and rigid body refinement, called a probable solution; protein mixed with inhibitor MLN120B
[2] = biological target: the molecule itself; assay: crystal structure; tetragonal crystal form, space group P4(1)22, six protomers in the asymmetric unit; protein mixed with inhibitor MLN120B 1:2; sodium malonate pH 6.5, 18°C
[3] = biological target: T1, His-tagged full-length human IKK2 (human), O14920; assay: AUC; sedimentation velocity, ~0.5 mg/ml, 30,000 rpm, 20°C, 15 h; Sedfit; conditions: remark: other sources report otherwise
T1 chain: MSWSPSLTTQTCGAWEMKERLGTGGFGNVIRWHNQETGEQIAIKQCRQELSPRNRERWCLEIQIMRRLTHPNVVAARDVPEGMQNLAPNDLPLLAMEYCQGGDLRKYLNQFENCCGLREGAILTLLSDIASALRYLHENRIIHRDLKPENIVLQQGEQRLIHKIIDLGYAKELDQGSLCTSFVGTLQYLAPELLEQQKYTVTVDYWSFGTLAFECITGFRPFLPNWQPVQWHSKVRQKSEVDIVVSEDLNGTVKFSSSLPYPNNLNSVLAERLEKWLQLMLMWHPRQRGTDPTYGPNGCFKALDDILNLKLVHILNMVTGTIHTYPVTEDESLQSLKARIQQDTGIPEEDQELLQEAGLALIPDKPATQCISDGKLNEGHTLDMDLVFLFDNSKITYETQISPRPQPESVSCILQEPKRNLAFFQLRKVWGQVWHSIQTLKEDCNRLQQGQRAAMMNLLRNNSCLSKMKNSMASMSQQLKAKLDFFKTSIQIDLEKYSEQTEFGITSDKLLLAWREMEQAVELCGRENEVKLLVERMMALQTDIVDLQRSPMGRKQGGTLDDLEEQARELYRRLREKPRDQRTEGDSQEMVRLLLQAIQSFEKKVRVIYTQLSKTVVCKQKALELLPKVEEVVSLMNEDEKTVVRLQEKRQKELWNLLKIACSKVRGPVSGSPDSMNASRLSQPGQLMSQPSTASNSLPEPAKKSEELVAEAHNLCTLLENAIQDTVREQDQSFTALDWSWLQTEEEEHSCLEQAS

[4] = biological target: T1, His-tagged full-length human IKK2 …; assay: SEC-MALS; SEC-MALLS; protein pretreated with 1 mM ATP, concentrated as for crystallization; Zenix SEC-300 column, 20 mM Tris-Cl pH 8, 150 mM NaCl, 5% glycerol; conditions: remark: other sources report otherwise

B1: human IKK2 (amino acids 1–700), constitutively active S177E/S181E (domain or fragment, UniProt O14920 1-700, looked up)
chain: MSWSPSLTTQTCGAWEMKERLGTGGFGNVIRWHNQETGEQIAIKQCRQELSPRNRERWCLEIQIMRRLTHPNVVAARDVPEGMQNLAPNDLPLLAMEYCQGGDLRKYLNQFENCCGLREGAILTLLSDIASALRYLHENRIIHRDLKPENIVLQQGEQRLIHKIIDLGYAKELDQGELCTEFVGTLQYLAPELLEQQKYTVTVDYWSFGTLAFECITGFRPFLPNWQPVQWHSKVRQKSEVDIVVSEDLNGTVKFSSSLPYPNNLNSVLAERLEKWLQLMLMWHPRQRGTDPTYGPNGCFKALDDILNLKLVHILNMVTGTIHTYPVTEDESLQSLKARIQQDTGIPEEDQELLQEAGLALIPDKPATQCISDGKLNEGHTLDMDLVFLFDNSKITYETQISPRPQPESVSCILQEPKRNLAFFQLRKVWGQVWHSIQTLKEDCNRLQQGQRAAMMNLLRNNSCLSKMKNSMASMSQQLKAKLDFFKTSIQIDLEKYSEQTEFGITSDKLLLAWREMEQAVELCGRENEVKLLVERMMALQTDIVDLQRSPMGRKQGGTLDDLEEQARELYRRLREKPRDQRTEGDSQEMVRLLLQAIQSFEKKVRVIYTQLSKTVVCKQKALELLPKVEEVVSLMNEDEKTVVRLQEKRQKELWNLLKIACSKVRGPVSGSPDSMNASRLSQPGQLMSQPSTASNSLPE
notes: human IκB kinase 2 (IKK2/IKKβ), amino acids 1–700 (amino acid 701 mutated to a stop codon), with S177E/S181E; Hexagonal crystal form, data to 7 Å; no PDB entry is named for it; also called hIKK2EE 1–700; hIKK2EE(1–700); source: Sf9 (baculovirus), purified (Ni-NTA, TEV, Superdex200); not shown: His6, N-terminal, cleaved
Question: With B1 as the binder, how does the “stoichiometry N” value [1] read?
Answer: 2

B2: human IKK2 (amino acids 11–669), constitutively active S177E/S181E (domain or fragment, UniProt O14920 11-669, looked up)
chain: TCGAWEMKERLGTGGFGNVIRWHNQETGEQIAIKQCRQELSPRNRERWCLEIQIMRRLTHPNVVAARDVPEGMQNLAPNDLPLLAMEYCQGGDLRKYLNQFENCCGLREGAILTLLSDIASALRYLHENRIIHRDLKPENIVLQQGEQRLIHKIIDLGYAKELDQGELCTEFVGTLQYLAPELLEQQKYTVTVDYWSFGTLAFECITGFRPFLPNWQPVQWHSKVRQKSEVDIVVSEDLNGTVKFSSSLPYPNNLNSVLAERLEKWLQLMLMWHPRQRGTDPTYGPNGCFKALDDILNLKLVHILNMVTGTIHTYPVTEDESLQSLKARIQQDTGIPEEDQELLQEAGLALIPDKPATQCISDGKLNEGHTLDMDLVFLFDNSKITYETQISPRPQPESVSCILQEPKRNLAFFQLRKVWGQVWHSIQTLKEDCNRLQQGQRAAMMNLLRNNSCLSKMKNSMASMSQQLKAKLDFFKTSIQIDLEKYSEQTEFGITSDKLLLAWREMEQAVELCGRENEVKLLVERMMALQTDIVDLQRSPMGRKQGGTLDDLEEQARELYRRLREKPRDQRTEGDSQEMVRLLLQAIQSFEKKVRVIYTQLSKTVVCKQKALELLPKVEEVVSLMNEDEKTVVRLQEKRQKELWNLLKIACSKVRGPV
notes: human IκB kinase 2 (IKK2/IKKβ), amino acids 11–669, with S177E/S181E; Cloned in pFastBacHTb (N-terminal hexa-histidine tag, TEV site); Incubated with ATP/MgCl2 before the size exclusion column; also called IKK2(11–669)EE; hIKK2EE(11–669); source: Sf9 (baculovirus), purified (Ni-NTA, TEV, Superdex200); not shown: His6, N-terminal, cleaved
Question: For B2, which “stoichiometry N” value [2] is on record?
Answer: 2 and 4

B3: His-tagged full-length human IKK2, O14920 1-756 (enzyme)
chain: T1 chain
Question: How did the stoichiometry N [3] turn out when B3 was run?
Answer: 4 and 6 and 8

Question: And the stoichiometry N [4]?
Answer: 4
